The results in this text go back to doi:10.1101/2022.09.20.508729, “Loss of the first β-strand of human prion protein generates an aggregation-competent partially “open” form” (bioRxiv, 2022).

This data set deals with the molecule itself. The data set can be described thus: thioflavin T fluorescence of fibril formation.

B1: PrP^23 (residues 23-231 of human PrP) (natural protein)
chain: not shown
notes: also called full-length WT PrP
Consider B1, for which the binding result is “binds”.
